What was measured:
[1] = target: Lyso-Nb_4 K43A (alpaca scaffold, camel CDRs); assay: SPR
[2] = target: Lyso-Nb_4 L11A (alpaca scaffold, camel CDRs); assay: SPR
[3] = target: Lyso-Nb_4 P41A (alpaca scaffold, camel CDRs); assay: SPR
[4] = target: Lyso-Nb_4 R45A (alpaca scaffold, camel CDRs); assay: SPR
[5] = target: Lyso-Nb_4 S112A (alpaca scaffold, camel CDRs); assay: SPR
[6] = target: Lyso-Nb_4 V89A (alpaca scaffold, camel CDRs); assay: SPR
[7] = target: Lyso-Nb_4 W103A (alpaca scaffold, camel CDRs); assay: SPR
[8] = target: Lyso-Nb_4 Y91A (alpaca scaffold, camel CDRs); assay: SPR
TC-Nb4 (alpaca) = assay: SPR
lysozyme = lysozyme (Gallus gallus, UniProt P00698); assay: SEC
VcNorM = VcNorM (UniProt Q9KRU4); assay: SEC

B1: NabFab (Fab, V domains shown)
VH: EVQLVESGGGLVQPGGSLRLSCAASGFNFSYYSIHWVRQAPGKGLEWVAYISSSSSYTSYADSVKGRFTISADTSKNTAYLQMNSLRAEDTAVYYCARGYQYWQYHASWYWNGGLDYWGQGTLVTVSS
VL: DIQMTQSPSSLSASVGDRVTITCRASQSVSSAVAWYQQKPGKAPKLLIYSASSLYSGVPSRFSGSRSGTDFTLTISSLQPEDFATYYCQQSSSSLITFGQGTKVEIK
B1 showed a fold reduction of affinity against Lyso-Nb 4 [1] of under 5 fold, a fold reduction of affinity against Lyso-Nb 4 [2] of under 5 fold and a fold reduction of affinity against Lyso-Nb 4 [3] of 400 fold. It also gave a fold higher KD against Lyso-Nb 4 [4] of over 40 fold, a fold reduction of affinity against Lyso-Nb 4 [5] of under 5 fold and a fold reduction of affinity against Lyso-Nb 4 [6] of 600 fold. It also gave a fold reduction of affinity against Lyso-Nb 4 [7] of under 5 fold, a fold higher KD against Lyso-Nb 4 [8] of over 25 fold and a Kd (TC-Nb4 (alpaca)) of 860 pM.

B2: Lyso-Nb_4 (VHH)
VHH: QRQLVESGGGLVQPGGSLRLSCAASGSTDSIEYMTWFRQAPGKEREGVAALYTHTGNTYYADSVKGRFIISRDKAKNMVYLQMNSLEPEDTAVYYCGATRKYVPVRFALDQSSYDYWGKGTPVTVSS
B2: binds (lysozyme).

B3: NorM-Nb17_4 (VHH)
VHH: QRQLVESGGGLVQPGGSLRLSCAASGIIFKINDMGWFRQAPGKEREGVAGITSGGRTNYADSVKGRFIISRDNVKNTVYLQMNSLEPEDTAVYYCKSDGLISYAASQLSTYWGKGTPVTVSS
B3: binds (VcNorM).
